Measured values taken from patent publication US20220154204.

Molecular target: T1, GST-OST1/SnRK2.6, Q940H6
T1 chain: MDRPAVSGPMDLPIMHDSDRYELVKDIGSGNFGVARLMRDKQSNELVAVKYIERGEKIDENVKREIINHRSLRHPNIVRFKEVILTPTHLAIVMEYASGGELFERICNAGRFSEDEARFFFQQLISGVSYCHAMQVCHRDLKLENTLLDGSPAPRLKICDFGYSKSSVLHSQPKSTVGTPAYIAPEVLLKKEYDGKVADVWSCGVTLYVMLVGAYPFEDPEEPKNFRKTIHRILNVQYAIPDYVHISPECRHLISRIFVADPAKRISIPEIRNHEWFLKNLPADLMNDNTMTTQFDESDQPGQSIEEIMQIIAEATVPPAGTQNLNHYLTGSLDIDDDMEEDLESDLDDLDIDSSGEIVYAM

B1: MPK12 (protein)
chain: MSGESSSGSTEHCIKVVPTHGGRYVQYNVYGQLFEVSRKYVPPIRPIGRGACGIVCAAVNSVTGEKVAIKKIGNAFDNIIDAKRTLREIKLLRHMDHENVITIKDIVRPPQRDIFNDVYIVYELMDTDLQRILRSNQTLTSDQCRFLVYQLLRGLKYVHSANILHRDLRPSNVLLNSKNELKIGDFGLARTTSDTDFMTEYVVTRWYRAPELLLNCSEYTAAIDIWSVGCILGEIMTGQPLFPGKDYVHQLRLITELVGSPDNSSLGFLRSDNARRYVRQLPRYPKQQFAARFPKMPTTAIDLLERMLVFDPNRRISVDEALGHAYLSPHHDVAKEPVCSTPFSFDFEHPSCTEEHIKELIYKESVKFNPDH
For B1, the “in vitro phosphorylation assay with 32P-ATP after dephosphorylation of OST1” value was “did not phosphorylate OST1/SnRK2.6 after dephosphorylation”.
